From patent publication US20200093866A1, “Use of selected single cobrotoxin molecule as an analgesic” (priority 2018, published 2020)

B1: cobrotoxin (protein, UniProt P60770 22-83, looked up)
Cobrotoxin: LECHNQQSSQTPTTTGCSGGETNCYKKRWRDHRGYRTERGCGCPSVKNGIEINCCTTDRCNN
B2: Chain A, Cobrotoxin (protein, UniProt P60770 22-83, looked up)
Cobrotoxin: B1 Cobrotoxin

Experiments:
[1] = system: Wistar rats; assay: Tail flick test (thermal radiation), Periaqueductal Gray injection; assay type: in vivo; conditions: PAG injection; for latency induced by thermal radiation (tail flick): 1.5, 3.0 and 6.0 μg/kg; for time at which analgesic effect appeared / time at which analgesic effect peaked: after drug administration; for maximum increase of pain threshold: tail flick
Method: Most commonly, an intense light beam is focused on the animal's tail and a timer starts. When the animal flicks its tail, the timer stops and the recorded time (latency) is a measure of the pain threshold.
METHODS: Periaqueductal Gray (PAG) was injected with selected cobrotoxin molecule in rats, and the central analgesic effect was evaluated by the tail flick due to thermal radiation. 20 Wistar rats with a weight of 200±20 g were divided into 2 groups, 10 per group. […] The analgesic effect of Chain A, Cobrotoxin and Chain A, Cobrotoxin B appeared in 10˜15 minutes and peaked at 25˜30 minutes after drug administration. The maximum increase of pain threshold was over 200%.

[2] = system: Kunming mice; assay: Respiratory inhibition test; assay type: in vivo; conditions: effective dose of 60 μg/kg, 10 Kunming mice
Text: 4) Respiratory inhibition test Chain A, Cobrotoxin and Chain A, Cobrotoxin B were separately administered to 10 Kunming mice of 20±2 g.

[3] = system: Kunming mice; assay: Acetic acid writhing test, parenteral (iv) injection; assay type: in vivo; conditions: for inhibitory rate of mice writhing / time at which analgesic effect started: 60 μg/kg iv; for inhibitory rate of mice writhing: 90 minutes after administration; for time at which analgesic effect started / frequency of writhing induced by acetic acid / ED50 of the anti-nociceptive effect of acetic acid induced writhing: mice; for frequency of writhing induced by acetic acid: 30, 45 or 60 μg/kg iv; for ED50 of the anti-nociceptive effect of acetic acid induced writhing: iv
Method: Writhing test for the evaluation of analgesic effect by parenteral injection The writhing test is a chemical method used to induce pain of peripheral origin by injection of irritant principles like acetic acid in mice. Analgesic effect of the test compound is inferred from the decrease in the frequency of writhing.
METHOD: A total number of 60 Kunming mice were used, 10 per group, with a weight of 20±2 g. […] At dose of 60 μg/kg (iv), The analgesic effect started at 30 minutes, and could reach 60˜70% inhibitory rate of mice writhing at 90 minutes after administration. The ED50 of the anti-nociceptive effect of acetic acid induced writhing was 40˜50 μg/kg in the writhing test for Chain A, Cobrotoxin and Chain A, Cobrotoxin B.

[4] = system: Kunming mice; assay: Acetic acid writhing test, nasal administration; assay type: in vivo; conditions: for frequency of writhing induced by acetic acid: 30, 45 or 60 μg/kg nasal; for frequency of writhing induced by acetic acid / ED50 of the anti-nociceptive effect of acetic acid induced writhing / time at which analgesic effect started: mice; for duration of analgesic effect / ED50 of the anti-nociceptive effect of acetic acid induced writhing / time at which analgesic effect started: nasal administration; for duration of analgesic effect: after drug administration
Method: Writhing test for the evaluation of analgesic effect by nasal administration METHOD: A total number of 60 Kunming mice were used, 10 per group, with a weight of 20±2 g. […] The analgesic effect started at 30 minutes and lasted at least for 6 hours after drug administration.

[5] = system: Kunming mice; assay: Acetic acid writhing test, oral administration; assay type: in vivo; conditions: for frequency of writhing induced by acetic acid: 160, 320 or 480 μg/kg oral; for ED50 of the anti-nociceptive effect of acetic acid induced writhing: oral administration
Text: Writhing test for the evaluation of analgesic effect by oral administration METHOD: A total number of 60 Kunming mice were used, 10 per group, with a weight of 20±2 g.

[6] = Quantitative microdialysis of unbound brain extracellular fluid (bECF) concentration after IV injection; assay type: in vivo, rat; conditions: rats, 125I-labeled, 120 μg, dialysate over 360 minutes, FIG. 4
Text: The estimated molecular weights of Chain A, Cobrotoxin, Chain A, Cobrotoxin B are 6.9±0.6 KDa; the estimated molecular weights of a cobrotoxins complexes extracted from crude venom ranged from approximately 6.5 KDa to 15 KDa. Quantitative microdialysis (QMD) is used to determine the absolute unbound brain extracellular fluid (bECF) concentration of Chain A, Cobrotoxin, Chain A, Cobrotoxin B, and the cobrotoxins complexes. QMD is the only technique that enables sampling of bECF in conscious animals and provides direct evidence of exposure at extracellular target sites (Kielbasa and Stratford, Jr. 2015)
QMD consists of implanting a probe in rat (FIG.-3). The membrane of the probe will allow the exchange of perfusate with bECF, so the concentration of Chain A, Cobrotoxin, Chain A, Cobrotoxin B, and a cobrotoxins complexes in bECF could be measured through dialysate. […] In response, an in vivo recovery rate test of the probe (MD-2200) was performed on 125I-labeled Chain A, Cobrotoxin, Chain A, Cobrotoxin B, and a cobrotoxins complexes, each with three different concentrations of 5, 25, and 50 ng/ml as perfusate, with a flow rate of 2 μL/min was perfused through the probe. During microdialysis, the dialysate was collected every 10 minutes for an hour, then tested using SN629B-radioimmunoassay counter to calculate cpm. […] The recovery rate (by loss) % was calculated as: […]

[7] = target: T1, nAChR (Rattus norvegicus, UniProt P09660+P25108+P25110); assay: 125I labeled-αBtx-nAChR binding inhibition test (radio-immunoprecipitation); conditions: nAChR crude extract from rat skeletal muscle; approximate
T1 construct: nAChR crude extract from rat skeletal muscle; from tissue; host or cells: rat skeletal muscle (crude extract)
T1 sequence (P25108 21-457): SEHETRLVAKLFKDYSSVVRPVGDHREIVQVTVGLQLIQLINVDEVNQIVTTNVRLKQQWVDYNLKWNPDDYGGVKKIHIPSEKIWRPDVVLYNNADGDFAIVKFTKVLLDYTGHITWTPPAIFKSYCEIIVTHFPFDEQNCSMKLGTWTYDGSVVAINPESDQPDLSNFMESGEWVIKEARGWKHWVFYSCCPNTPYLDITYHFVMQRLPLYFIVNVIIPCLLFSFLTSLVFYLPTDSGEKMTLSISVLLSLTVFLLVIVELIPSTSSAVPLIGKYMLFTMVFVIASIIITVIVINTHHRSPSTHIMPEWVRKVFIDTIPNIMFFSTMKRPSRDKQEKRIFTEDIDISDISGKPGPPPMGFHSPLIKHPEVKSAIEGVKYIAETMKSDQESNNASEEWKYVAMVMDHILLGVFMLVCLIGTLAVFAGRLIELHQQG
T1 sequence (P25110 22-517): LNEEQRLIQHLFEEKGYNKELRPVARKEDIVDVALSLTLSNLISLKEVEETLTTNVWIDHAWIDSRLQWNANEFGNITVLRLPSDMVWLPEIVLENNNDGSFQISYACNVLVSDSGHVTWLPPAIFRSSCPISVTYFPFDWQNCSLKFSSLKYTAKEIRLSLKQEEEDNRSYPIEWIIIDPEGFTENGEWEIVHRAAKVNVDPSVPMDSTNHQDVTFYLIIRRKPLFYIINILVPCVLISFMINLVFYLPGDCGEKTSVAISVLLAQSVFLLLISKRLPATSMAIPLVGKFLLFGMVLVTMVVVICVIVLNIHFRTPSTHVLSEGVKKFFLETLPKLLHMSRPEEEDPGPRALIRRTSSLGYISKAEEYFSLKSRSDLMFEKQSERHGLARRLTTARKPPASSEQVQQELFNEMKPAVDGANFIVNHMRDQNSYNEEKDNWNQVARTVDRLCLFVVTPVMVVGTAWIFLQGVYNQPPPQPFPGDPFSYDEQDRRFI
T1 sequence (P09660 21-494): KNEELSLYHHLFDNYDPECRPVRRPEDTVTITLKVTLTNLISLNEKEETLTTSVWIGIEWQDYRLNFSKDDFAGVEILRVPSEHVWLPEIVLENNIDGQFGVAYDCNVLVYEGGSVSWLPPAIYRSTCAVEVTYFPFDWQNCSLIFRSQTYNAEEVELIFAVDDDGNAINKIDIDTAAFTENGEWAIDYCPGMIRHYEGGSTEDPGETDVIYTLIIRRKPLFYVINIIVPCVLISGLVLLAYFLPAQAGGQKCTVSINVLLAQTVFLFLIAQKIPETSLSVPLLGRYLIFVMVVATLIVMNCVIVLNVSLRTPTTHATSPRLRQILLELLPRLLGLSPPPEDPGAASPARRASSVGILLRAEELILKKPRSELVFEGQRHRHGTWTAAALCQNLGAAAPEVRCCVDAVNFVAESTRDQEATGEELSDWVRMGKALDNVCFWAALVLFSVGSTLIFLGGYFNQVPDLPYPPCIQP
T1 sequence (P25109 24-501 partner): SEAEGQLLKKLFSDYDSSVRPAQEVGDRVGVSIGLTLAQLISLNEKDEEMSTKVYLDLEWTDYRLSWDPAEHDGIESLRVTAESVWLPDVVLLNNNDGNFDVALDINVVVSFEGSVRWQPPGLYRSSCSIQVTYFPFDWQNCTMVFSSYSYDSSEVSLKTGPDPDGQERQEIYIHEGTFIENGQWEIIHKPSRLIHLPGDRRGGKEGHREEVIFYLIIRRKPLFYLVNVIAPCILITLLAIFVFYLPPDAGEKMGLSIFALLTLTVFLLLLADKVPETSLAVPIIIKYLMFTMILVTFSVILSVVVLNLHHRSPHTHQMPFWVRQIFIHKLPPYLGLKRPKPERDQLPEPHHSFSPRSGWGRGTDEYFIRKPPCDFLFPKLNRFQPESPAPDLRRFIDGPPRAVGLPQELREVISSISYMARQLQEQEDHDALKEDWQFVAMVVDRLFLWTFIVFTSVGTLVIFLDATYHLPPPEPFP
Text: As shown in FIG.-2, a total of 12 fractions from the aforementioned ion-exchange chromatography were further desalted and purified by a reverse-phase HPLC (RP-HPLC) with Vydac RP-C18 (4.6×250 mm, 5.0 um). Fractions A and B were identified as high-affinity cobrotoxins with enhanced binding ability to nAChR in a later 125I labeled-αBtx-nAChR binding inhibition test. • 2) Screening and selection of single cobrotoxin molecule with high affinity binding to nAChR for better drug target engagement The 125I labeled-α-bungarotoxin(αBtx)-nAChR binding inhibition test was performed to evaluate the affinities of different cobrotoxins molecules. […] Higher the affinity of cobrotoxin with nAChR, greater the inhibitory rate toward α-bungarotoxin's binding to nAChR. In our radio-immunoprecipitation test, only nAChR bonded α-bungarotoxin will be precipitated with nicotinic acetylcholine antibody (mAb 35) and Rabbit Anti-Rat IgG, whilst unbounded α-bungarotoxin will be washed out. By testing the concentration of bonded α-bungarotoxin, we can determine the inhibitory rates of different cobrotoxins molecules isolated in step 1).
Calculation of “125I-αBtx-nAChR binding inhibitory rate (%)” […]
The 125I-αBtx-nAChR binding inhibition experiment process is performed and described in following sequence: • i. […] The (Bq) value per second was measured using the gamma radioimmunoassay counter.

[8] = system: mice; conditions: i.c.v. injection, mice (Chen and Robinson, 1990); cited from earlier work

Row | Molecule | latency induced by thermal radiation (tail flick) [1] | ED50 of the antinociceptive effect of thermal radiation-induced tail flick [1] | time at which analgesic effect appeared [1] | time at which analgesic effect peaked [1] | maximum increase of pain threshold [1] | respiratory inhibition [2] | inhibitory rate of mice writhing [3] | time at which analgesic effect started [3] [min] | frequency of writhing induced by acetic acid [3] | ED50 of the anti-nociceptive effect of acetic acid induced writhing [3] | frequency of writhing induced by acetic acid [4] | duration of analgesic effect [4] [h] | ED50 of the anti-nociceptive effect of acetic acid induced writhing [4] | time at which analgesic effect started [4] [min] | frequency of writhing induced by acetic acid [5] | ED50 of the anti-nociceptive effect of acetic acid induced writhing [5] | time course of reaching bECF brain concentration versus cobrotoxins complexes [6] | 125I-αBtx-nAChR binding inhibitory rate [7] | antinociceptive response in tail-flick test [8]
1 | Chain A, Cobrotoxin B | dose-dependent increase | 3.3˜4.0 μg/kg | 10˜15 minutes | 25˜30 minutes | over 200% | No respiratory inhibition was observed | 60˜70% | 30 | dose-dependent decrease | 40˜50 μg/kg | dose-dependent decrease | ≥ 6 | 38˜46 μg/kg | 30 | dose-dependent decrease | 300˜350 μg/kg | always ahead of the cobrotoxins complexes in reaching a specific concentration | 40%-50% | –
2 | B1 | – | – | – | – | – | – | – | – | – | – | – | – | – | – | – | – | – | – | produced an antinociceptive response
3 | B2 | dose-dependent increase | 3.3˜4.0 μg/kg | 10˜15 minutes | 25˜30 minutes | over 200% | No respiratory inhibition was observed | 60˜70% | 30 | dose-dependent decrease | 40˜50 μg/kg | dose-dependent decrease | ≥ 6 | 38˜46 μg/kg | 30 | dose-dependent decrease | 300˜350 μg/kg | always ahead of the cobrotoxins complexes in reaching a specific concentration | 40%-50% | –
